Results published in patent US20200149021, “SYSTEM AND METHOD FOR GENOME EDITING” (INSTITUTE OF ZOOLOGY, CHINESE ACADEMY OF SCIENCES, published 2020).

Experiments:
[1] = target: T1, PxCpf1 (Pseudobutyrivibrio xylanivorans); assay: cell_activity; PAM TTTC; (T)TTN; T7EI; settings: tags: HA (2A-eGFP vector)
T1 chain: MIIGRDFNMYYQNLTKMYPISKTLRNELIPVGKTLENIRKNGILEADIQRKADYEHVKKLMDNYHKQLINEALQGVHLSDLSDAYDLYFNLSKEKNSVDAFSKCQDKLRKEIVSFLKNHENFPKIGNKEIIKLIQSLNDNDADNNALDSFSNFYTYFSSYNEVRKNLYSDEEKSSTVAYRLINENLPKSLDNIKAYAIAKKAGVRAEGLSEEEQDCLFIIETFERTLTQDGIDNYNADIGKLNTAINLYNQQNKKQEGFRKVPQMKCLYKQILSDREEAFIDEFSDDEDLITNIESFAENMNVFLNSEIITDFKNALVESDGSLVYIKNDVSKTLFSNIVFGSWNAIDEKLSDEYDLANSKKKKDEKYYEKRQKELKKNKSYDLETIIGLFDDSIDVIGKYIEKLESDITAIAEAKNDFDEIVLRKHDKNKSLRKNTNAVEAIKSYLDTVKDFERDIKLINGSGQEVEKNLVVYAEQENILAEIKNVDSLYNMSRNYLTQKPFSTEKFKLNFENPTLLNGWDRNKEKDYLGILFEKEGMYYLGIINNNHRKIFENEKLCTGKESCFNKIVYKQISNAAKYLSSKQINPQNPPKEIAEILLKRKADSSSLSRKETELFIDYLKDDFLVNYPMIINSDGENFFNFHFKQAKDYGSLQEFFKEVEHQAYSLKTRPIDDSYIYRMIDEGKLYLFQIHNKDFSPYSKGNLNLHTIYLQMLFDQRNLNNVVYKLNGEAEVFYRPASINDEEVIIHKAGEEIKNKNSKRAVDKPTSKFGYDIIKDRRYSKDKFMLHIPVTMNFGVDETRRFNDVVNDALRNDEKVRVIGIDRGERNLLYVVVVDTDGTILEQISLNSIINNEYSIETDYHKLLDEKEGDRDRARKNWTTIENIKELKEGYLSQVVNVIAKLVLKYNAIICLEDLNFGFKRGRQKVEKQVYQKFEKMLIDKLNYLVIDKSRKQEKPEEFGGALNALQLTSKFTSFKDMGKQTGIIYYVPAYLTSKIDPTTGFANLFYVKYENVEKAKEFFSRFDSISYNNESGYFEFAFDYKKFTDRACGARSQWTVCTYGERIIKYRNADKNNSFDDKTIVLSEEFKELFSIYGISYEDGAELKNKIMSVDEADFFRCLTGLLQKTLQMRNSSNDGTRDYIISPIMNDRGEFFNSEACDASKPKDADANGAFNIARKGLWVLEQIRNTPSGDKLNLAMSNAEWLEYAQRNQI
Description: (§1) GFP-positive cells were sorted by FACS, lysed with Buffer L+ 1/100V Protease K (Biotool) at 55° C. for 30 min, inactivated at 95° C. for 5 min, and directly used for PCR detection. Appropriate primers were designed near the Cpf1 targeting site, and the amplified product was purified using DNA Clean & Concentrator™-5 kit (ZYMO Research). 200 ng of purified PCR product was added into 1 uL of NEBuffer2 (NEB) and diluted to 10 uL with ddH₂O. Then, heterodimers were formed by re-annealing according to the previously reported method (Li, W., et al., Simultaneous generation and germline transmission of multiple gene mutations in rat using CRISPR-Cas systems. Nat Biotechnol, 2013. 31(8): p. 684-6). The reannealed product was added with 0.3 uL of T7EI endnucelease and 1/10 V NEBuffer2 (NEB), and digested at 37° C. for 1 h 30 min. Genotype analysis was performed by 3% TAE-Gel electrophoresis. Indels were calculated according to the method reported in the previous article (Cong, L., et al., Multiplex genome engineering using CRISPR/Cas systems. Science, 2013. 339(6121): p. 819-23).
(§2) The cells were transfected with Cpf1, crRNA31, and crRNA2 plasmids, and it was confirmed by PCR and T7EI analysis that crRNA31 can increase the editing efficiency of five Cpf1s of ArCpf1, BsCpf1, HkCpf1, PrCpf1, and PxCpf1 at the site MeCP2-4 by two folds (FIG. 13B).

[2] = target: T2, PrCpf1 (Pseudobutyrivibrio ruminis); assay: cell_activity; PAM TTTC; (T)TTN; T7EI; settings: tags: HA (2A-eGFP vector)
T2 chain: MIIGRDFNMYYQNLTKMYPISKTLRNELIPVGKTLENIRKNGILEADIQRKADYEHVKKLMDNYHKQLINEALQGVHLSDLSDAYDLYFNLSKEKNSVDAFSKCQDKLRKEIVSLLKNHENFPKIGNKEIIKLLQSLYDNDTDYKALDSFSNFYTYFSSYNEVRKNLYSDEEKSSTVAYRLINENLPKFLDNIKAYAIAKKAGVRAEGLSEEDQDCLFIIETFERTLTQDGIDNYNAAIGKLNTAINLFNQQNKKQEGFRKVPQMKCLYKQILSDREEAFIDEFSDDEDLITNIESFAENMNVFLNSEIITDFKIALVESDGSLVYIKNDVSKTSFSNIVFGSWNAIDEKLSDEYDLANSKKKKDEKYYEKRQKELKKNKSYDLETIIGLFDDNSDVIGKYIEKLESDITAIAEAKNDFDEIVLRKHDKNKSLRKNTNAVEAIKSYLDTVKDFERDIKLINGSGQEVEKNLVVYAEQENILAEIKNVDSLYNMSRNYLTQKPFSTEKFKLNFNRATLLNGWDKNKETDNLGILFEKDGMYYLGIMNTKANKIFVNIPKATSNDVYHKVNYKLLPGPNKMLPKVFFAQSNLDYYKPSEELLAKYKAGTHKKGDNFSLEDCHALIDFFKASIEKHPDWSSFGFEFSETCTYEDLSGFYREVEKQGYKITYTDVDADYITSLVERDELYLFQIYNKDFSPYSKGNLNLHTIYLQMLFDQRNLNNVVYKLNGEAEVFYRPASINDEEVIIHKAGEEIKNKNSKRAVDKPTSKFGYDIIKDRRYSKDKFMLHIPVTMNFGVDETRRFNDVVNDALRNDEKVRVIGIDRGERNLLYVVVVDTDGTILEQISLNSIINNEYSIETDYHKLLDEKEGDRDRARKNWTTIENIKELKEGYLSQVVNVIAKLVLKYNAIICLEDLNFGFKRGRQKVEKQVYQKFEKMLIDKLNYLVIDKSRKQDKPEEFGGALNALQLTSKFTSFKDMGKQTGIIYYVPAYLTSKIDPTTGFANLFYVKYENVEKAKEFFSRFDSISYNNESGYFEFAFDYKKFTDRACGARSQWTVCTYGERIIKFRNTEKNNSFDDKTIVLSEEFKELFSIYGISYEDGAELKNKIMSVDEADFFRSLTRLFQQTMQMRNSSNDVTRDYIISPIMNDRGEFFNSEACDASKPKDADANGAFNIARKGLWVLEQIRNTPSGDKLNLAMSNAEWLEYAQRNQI
Description: as §1, §2

B1: crRNA31 MeCP2 site 4 ; Mouse MeCP2 site 4 (ssRNA ; dsDNA)
RNA: AUUUCUACUAUGGUAGAUGUGUCCAACCUUCAGGCAAGGUG
DNA 1: TTTCGTGTCCAACCTTCAGGCAAGGTG
DNA 2: CACCTTGCCTGAAGGTTGGACACGAAA
- editing efficiency [1]: ~2 fold vs crRNA2
- editing efficiency [2]: ~2 fold vs crRNA2
